Experimental data as given in a protein production outcome set (Wang et al. 2014).

Test: label from the status in PepcDB records

Sequence: MTNPLNSTAANRSNQPSSDGISDGQITNEEAESLINKKNCSGHKLKEVTDSDTFSDNGKDDSDTKKRFHYHQDQRRMSLTSIVAVESPSSSNAPSRKTIDLGHGSDLIYIQRFLPFQQSWTFFDYLDKHIPWTRPTIRVFGRSCLQPRDTCYVASSGLTALVYSGYRPTSYSWDDFPPLKEILDAIYKVLPGSRFNSLLLNRYKGASDYVAWHADDEKIYGPTPEIASVSFGCERDFVLKKKKDEESSQARNKPTFVWCEPAGKTGDSGPAKKRLKRSSREDQQSLTLKHGSLLVMRGYTQRDWIHSVPKRAKAEGTRINLTFRLVL
- protein production: not failed

Sequence: MRRAEIPMNPLINHPAILFVVMLVVMSSATALGALVLRRIRPLPAEVKDDFGIVQGATLTLLALLIGFTLSMAVGRYDQRKNLEEEEANAIGTEYLRADLIEGPEAEQVKALLVRYLDQRILYYRTRDSAQLQEIEAATSQIEDEMWKLMRSAARAKPTPITGLVVSGMNDVINSQGYAEAAWINRIPVSAWGLMIVIAFFSSMMQGYGARSENAKIILMLVLPFTVSLSLALISDIDSPRGGLIRVLPQNLLSLQASLKR
- protein production: failed

Sequence: VASGYGGIRVGGPYFDDLSKGQVFDWAPGVTLSLGLAAAHQSIVGNRLRLALDSDLCAAVTGMPGPLAHPGLVCDVAIGQSTLATQRVKANLFYRGLRFHRFPAVGDTLYTRTEVVGLRANSPKPGRAPTGLAGLRMTTIDRTDRLVLDFYRCAMLPASPDWKPGAVPGDDLSRIGADAPAPAADPTAHWDGAVFRKRVPGPHFDAGIAGAVLHSTADLVSGAPELARLTLNIAATHHDWRVSGRRLVYGGHTIGLALAQATRLLPNLATVLDWESCDHTAPVHEGDTLYSELHIESAQAHADGGVLGLRSLVYAVSDSASEPDRQVLDWRFSALQF
- protein production: not failed

Sequence: MITIENSKFKAGIAERGAELQSLVNKADNYEYVWTGDKTFWNRHAPILFPSIGKSNQDQYRLGAKTYPMSQHGFARDYDFDVSDKSDSAVTFTQHQNAETLKKFPFEYTLAVTYMLTDGGLSVHYTVTNDDSKSMPFALGFHPAFNVGLKADGSFDDYDLTVEPLNSPLQRFGIGPVPFRNGDVEDIPGAEGNRLPLTHDLLDGGLVILANSEIAKATLASPHHDHSITLDISDFPYLTIWSPEHKKAPFIAVEPFDGLPDQAGEPTDWYTKLGNTTLSAGANKQLALKVELHLEHHHHHH
- protein production: failed

Sequence: MMKRARIIYNPTSGRELFKKSLPEVLQKLEQAGYEASCHATTGPGDATVAARQAVERKFDVVIAAGGDGTLNEVVNGLVGHEFRPKFGIIPVGTTNDFARAIGVPRSIEEAADIICEGKTVPLDLGRANDTYFINIAGGGRITELTYEVPSKLKTVLGQLAYYLKGIEMLPSLHPTYVEIEYDGKLLQEEITMFLITNTRSVGGFEKVAPYASINDGLFDLLVLKKGSIADLIKAATQAQRGEHINNPKVLYTQANRIKVHSPDKLMINLDGEYGGDAPMEFENMYHCLELFVPEHQEDAL
- protein production: failed

Sequence: MSASICCRCNEKIWPRAVCSLGKTYHPHHFTCKECGLVVDPKLFFAVDDDVVCSECYLDKHAARCSACRTPILERGVAAAERKWHEKCFRCVSCSKSLVSASFFEVNGYLFCKAHFRELFSSRCAGCEKPIDRRAVVALSTKWHAKCFKCHHCRKRISAREFWIENGQPICAACQTVVPSPRNLSAQ
- protein production: failed

Sequence: MPRKNQDLYHHYPQKDRKFTMYKLSEKGEQIREMFSDIAPRYDFLNRLLSFGIDRRWRRIAVQCARWSEGGKILDVATGTGDVALEIARQTPDSVSIIGIDITEGMVVLGREKVAQSPYARRITLEIAPCEAIPFPDNTFDSVTIAFGIRNVVDRRQGLAEMQRILKPGGRAVILEFSTPRSQFFKRVYYFYFLRLLPAIGGLFSNFSAYKYLPDSVLEFPSQEEFKTLMRSVGFHSTTHRDLTFGIATIYTGEKAAQN
- protein production: failed

Sequence: MFMGKLPHQADLIGALIEAAGANGIRAGAIQVIGALQGAKLGFYDQWSKSYRELPFAKPLEIVSGLGNISLRDGRPFVHLHLSISDEEGKVFGGHALEGCTIFAAEYAIMPLPGSAPVRVFDETTGLFLWEREQYPASGQKGLSPELERALLNPLEHHHHHH
- protein production: not failed

Sequence: MNPKKLAFYLWLLLVAGGITAYFLYPDEINILFLEDLSEEYYYVALIIYFLLLSARGLTMIPSTPLLLAGVLTFDPLELFIVNMAGILSSSTIVYYFSKFLGFDSYFETKHGKYVRKIRRGLTDKELPVIVGWSFFPLVPTDLIVYVGSSLKIPLLKCLLGVFVGESVLNAFYIFSTNLILKL
- protein production: failed

Sequence: MDVAGEKQQRKGEAIARIEAEKNAYTVAQLADEYFERMIAGRWKHPNIVRSRIEKDIKPAIGSLKVEDVKPRHIDDVLKAVMKRGAPSIANDTLRWLKRMFNYAIKRHIIEYNPAAAFLEHHHHHH
- protein production: failed

Sequence: MRATEDHTIFDRGVGQRDQLQRLWTPYRMNYLAEAPVKRDPNSSASPAQPFTEIPQLSDEEGLVVARGKLVYAVLNLYPYNPGHLMVVPYRRVSELEDLTDLESAELMAFTQKAIRVIKNVSRPHGFNVGLNLGTSAGGSLAEHLHVHVVPRWGGDANFITIIGGSKLEHHHHHH
- protein production: failed

Sequence: MKAERPDTRKLKALKRGHIAEYRAALCLMLKGYRIVAMRYRTRLGEIDIIARRGDLVACVEVKARVSLEDAVFAVTDTAQRRIRAASDLWLSRQGDFHRLSVRYDIVAVTPWRWPRHLPDAF
- protein production: failed

Sequence: MKLTIIRLENFSDQDRIDLQKIWPEYSPSSLQVDDNYRIYAARFNERLLAAVRVTLSGTEGALDSLRVREVTRRRGVGQYLLEEVLRNNPDVSCWWMADAGVEDRGVMTAFMRALGFTAQQGGWEKH
- protein production: failed

Sequence: MIIPGIAAAETCPDGYKNVSVCKAEKMVEKEDVFLLDVRTPAEFNKTHIEGTILIPVKNVPAQDPVELSSDELLEVRINEVPADEKILVYCKSGARSAAACSLLVSNGYRKVYNMRGGIDCWLARGCTVDVNADKADELLGTGEFFLLDVRTPAEFNAGYIEGAILIPLKNVPKEDPVELPPEKLLAQCLCEIPENKPILVYCKSGTRSDAARDLLVDSGYRHVYNLEGGILTWKAEGYPTVCPAI
- protein production: failed

Sequence: DRTEERHAKGLRRQVDHRFDKLVGTISEGVLLMDDTGVFRDGNEAAQNILGRSLDEIIGSRFDDDIWNGLREDGSPLPNVEFPFWRAYVEREPVQEEVMGVYPPDAPPRWIRVNAQPLFRSGQEAPYAVLV
- protein production: not failed

Sequence: MGNYKFRISEMLPNAWFHKLKDVTKHSKPKNKASSSSSNTCSKKKPSSDSLPQHSYFSNSLVANNPPHHNSPRNSLHTKKMSKRKTLYKPSLKPLTPPPLLVSASFNKSKINDQDSSYSLFPAIETSPESFVYSFYEEDDDDEFVEFSNFKINTKNKAFTKQKVKVIDSVEKACTASKPIKKPQKSHLSVKISRDEDDNEYKAEKKYQRQVSSGRKPSAGINLKRVNSPRIQLSGTRRSTSRRSESKQDVLESFAVMKRSVDPKKDFRESMIEMIEENNIRASKDLEDLLACYLTLNPKEYHDLIIHVFEQIWLQLTKTK
- protein production: failed

Sequence: MREGRLGYNSYNKRYGLLSSDLWIDTGFHCGEYLEVLLDDEWVQTRMEMNPAREWYLVGTPYCGDLEYIRARIPE
- protein production: failed

Sequence: MLKKEYLKNPYLVLFAMIVLAYVFSVFCRFYWVWWASEFNEYFFNNQLMIISNDGYAFAEGARDMIAGFHQPNDLSYYGSSLSTLTYWLYKITPFSFESIILYMSTFLSSLVVIPIILLANEYKRPLMGFVAALLASVANSYYNRTMSGYYDTDMLVIVLPMFILFFMVRMILKKDFFSLIALPLFIGIYLWWYPSSYTLNVALIGLFLIYTLIFHRKEKIFYIAVILSSLTLSNIAWFYQSAIIVILFALFALEQKRLNFMIIGILGSATLIFLILSGGVDPILYQLKFYIFRSDESANLTQGFMYFNVNQTIQEVENVDFSEFMRRISGSEIVFLFSLFGFVWLLRKHKSMIMALPILVLGFLALKGGLRFTIYSVPVMALGFGFLLSEFKAILVKKYSQLTSNVCIVFATILTLAPVFIHIYNYKAPTVFSQNEASLLNQLKNIANREDYVVTWWDYGYPVRYYSDVKTLVDGGKHLGKDNFFPSFSLSKDEQAAANMARLSVEYTEKSFYAPQNDILKSDILQAMMKDYNQSNVDLFLASLSKPDFKIDTPKTRDIYLYMPARMSLIFSTVASFSFINLDTGVLDKPFTFSTAYPLDVKNGEIYLSNGVVLSDDFRSFKIGDNVVSVNSIVEINSIKQGEYKITPIDDKAQFYIFYLKDSAIPYAQFILMDKTMFNSAYVQMFFLGNYDKNLFDLVINSRDAKVFKLKI
- protein production: failed

Sequence: MNLEPPKAEIRSATRVMGGPVTPRKGPPKFKQRQTRQFKSKPPKKGVQGFGDDIPGMEGLGTDITVICPWEAFNHLELHELAQYGII
- protein production: not failed

Sequence: MAASSACLVGNGLSVNTTTKQRLSKHFSGRQTSFSSVIRTSKVNVVKASLDGKKKQEGRRDFLKILLGNAGVGLVASGKANADEQGVSSSRMSYSRFLEYLDKDRVNKVDLYENGTIAIVEAVSPELGNRVERVRVQLPGLSQELLQKLRAKNIDFAAHNAQEDQGSVLFNLIGNLAFPALLIGGLFLLSRRSGGGMGGPGGPGNPLQFGQSKAKFQMEPNTGVTFDDVAGVDEAKQDFMEVVEFLKKPERFTAVGAKIPKGVLLIGPPGTGKTLLAKAIAGEAGVPFFSISGSEFVEMFVGVGASRVRDLFKKAKENAPCIVFVDEIDAVGRQRGTGIGGGNDEREQTLNQLLTEMDGFEGNTGVIVVAATNRADILDSALLRPGRFDRQVSVDVPDVKGRTDILKVHAGNKKFDNDVSLEIIAMRTPGFSGADLANLLNEAAILAGRRARTSISSKEIDDSIDRIVAGMEGTVMTDGKSKSLVAYHEVGHAVCGTLTPGHDAVQKVTLIPRGQARGLTWFIPSDDPTLISKQQLFARIVGGLGGRAAEEIIFGDSEVTTGAVGDLQQITGLARQMVTTFGMSDIGPWSLMDSSAQSDVIMRMMARNSMSEKLAEDIDSAVKKLSDSAYEIALSHIKNNREAMDKLVEVLLEKETIGGDEFRAILSEFTEIPPENRVPSSTTTTPASAPTPAAV
- protein production: not failed

Sequence: MILMMENRMPKGIQKTETSEKNIEKVLNAYDKQQHHHQDDLAIQYLPAVRAMAFRLKERLPSSIDFNDLVSIGTEELIKLARRYESALNDSFWGYAKTRVNGAMLDYLRSLDVISRSSRKLIKSIDIEITKHLNEHGKEPSDAYLAQTLGENIEKIKEAKTASDIYALVPIDEQFNAIEQDEITKKIEAEELLEHVQKALNQMSEREQILIQLYYFEELNLSEIKEILGITESRISQIIKEVIKKVRKSLGVDHG
- protein production: failed

Sequence: MAQGFKITYTDQACLLDIQDPQNKESQSFHYALVPRGVEAENIPADYTVIETPIRSVICMTSLQLSNFIKLEELDAVVGITSTRHLFNKKINDRLKDGSIHKIGIEGNFDNEVIMSVNPDLILISPFKRGGYDALKEVGIPLMPHLGYKEMTPLGQAEWIKFVGLLLGREDKANKQFAAIKKRYNELKELTGLEHHHHHH
- protein production: failed

Sequence: MGLFSKRQIGNQYETLAKQYLQRQGLRFLDQNYLTKFGEIDLIFQQDETIVFVEVKYRKNDHFGSAAEMVTNAKMRKLIKTAQVWLSQQRTMNTIDYRFDVIAIHDSGRDINWIQNAISEG
- protein production: failed

Sequence: MAEKVKSGQVFNLLCIFSIFFFLFVLSVNVSADVDSERAVPSEDKTTTVWLTKIKRSGKNYWAKVRETLDRGQSHFFPPNTYFTGKNDAPMGAGENMKEAATRSFEHSKATVEEAARSAAEVVSDTAEAVKEKVKRSVSGGVTQPSEGSEEL
- protein production: failed

Sequence: MELDMGKVITAKRKEKSWTQEQLAQAVGVSTPAVSKWETGATYPDITLLPPIARALNTTVDELFSYQNELSDNDVSGFTQKATSLYEAEGFDAGWNYCQKLLQEFPNSIPLKFYLGNLFQSFMIMKTDLGKEDIQSCYRQAAILYEEVLLSGYPKFTYHATLILVGFYTMLNELDRAEELLDSLPKLKTDPDFLYPSIYALRGKNEEAMKLTQENIRRYISRVSHGLSLLGAFAREQEDMDKACTLAKMNLEITKLLGISREIAYADMIKIMVARGDKEAALTYLEEYTQHILELSYDYAKSPVFNRVTEKFQDPSYVKKVLAQSILIDKEYTPLKEEPRYLQIVHRLRQVIDTQTHTFRE
- protein production: failed
